# In the supplement of paper PMC9170038:
# System: MS2 coat protein
# Assay: apparent KD of MS2 coat protein; designed switch direction (-1 OFF switch, 1 ON switch): -1; higher = weaker reporter binding
# In short: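 Designed RNA switches with common flanks were made on Illumina chips by stalled E. coli RNA polymerase. Titration with SNAP-549-labelled MS2 coat protein doubled from 0.7 or 1.5 nM up to 3 µM. Apparent KD is each design's median over clusters after curve-fitting normalised fluorescence.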
# [1] = Eterna round: R95, input ligand: FMN 200 uM
# [2] = Eterna round: R95, input ligand: microRNA oligo, concentration not stated
# [3] = Eterna round: R95, input ligand: none
# [4] = input ligand: microRNA oligo, concentration not stated
Sequence,apparent KD of MS2 coat protein [1] [nM],apparent KD of MS2 coat protein [2] [nM],apparent KD of MS2 coat protein [3] [nM],apparent KD of MS2 coat protein (input ligand: FMN 200 uM) [nM],apparent KD of MS2 coat protein [4] [nM],apparent KD of MS2 coat protein (input ligand: none) [nM]
"AGUAGUAGUAUCCGAUCCUACAUGAGGAUCACCCAUGUAGCUAGACGUGCACGCGAUGCUCGUCAGACUGCCAGAUG [salish99_TOv1_r3_049] (puzzle: Sensor v3, turn-off variant 1)",95.4,97.8,128,–,–,–
UUCAUGUGAGGAUAUAGUACUCUUUCUAUUAUUUUUGAGUAUUAGAAGGCACAUGAGGAUCACCCAUGUAGUAC [Ex4 - 3 - 42] (puzzle: Exclusion 4),–,40.8,–,–,–,–
"GCAGCAACUCUAAUCAACCAAACAUGAGGAUCACCCAUGUCUCAGGAUAUGGUCUGGAUUACAGGCCAGAAGGGAGAAAGCUGC [Eli exng3 - 044] (Eterna round: R96, puzzle: Exclusion NG 3)",–,–,–,9,9.77,13.4
AGCCUACAUGAGGAUCACCCAUGUCAGGAUAUCUCGCGACAUGUCAAGUUCACGUUGCAGAGAAGGGACUCGGG [Ononxe] (puzzle: Exclusion 1),–,47.8,–,–,–,–
"GCCGGUGAUCUAACCCGUAACAUGAGGAUCACCCAUGUAAGCUCGGGUUCUACAGAACCCGAUAUUAGCUCGUCAGU [Eternabot (Original) Solution 3] (Eterna round: R97, puzzle: Sensor, turn-off variant 1)",–,–,–,599,–,894
"UUUAAUUUUUUUUUUUUACAAGCUUUUUGCUCGUCUUAUACAUGAGGAUCACCCAUGUGAAUGAGGGAUAAAUUAUC [JMF 39] (puzzle: Sensor v3, turn-off variant 2)",13.5,14.3,11.9,–,–,–
"CCGUCGGUAGGAUAUGCUAUGCAUGUCGGCGCUAUUUGAGGACAUGAGGAUCACCCAUGUAGAAGGGCCGAGGU [Eternabot (L1) Solution 55] (Eterna round: R97, puzzle: Exclusion 2)",–,–,–,22.7,–,15.7
"CCAUGGGAGCGAGGAUAUAGCCCAUGGGAAGAGCUAGAAGGCGCUGACAUGAGGAUCACCCAUGUGUUCAUGAGGAGGUGGACA (Eterna round: R96, puzzle: Exclusion NG 1)",–,–,–,292,128,173
GGUGCGUAUGUGAGGAUAUGCUGGUCCUUGGGUCAGCAGAAGGCACAUGAGGAUCACCCAUGUGGUGUCGUACC [salish99_Bmod_Ex4_026] (puzzle: Brourd's mod of Exclusion 4),20.3,345,344,–,–,–
"GUUUUCAGACGGAGAUCCUACAUGAGGAUCACCCAUGUCUCUCUUGUUCCUUGCUCGUCUUUUCCUCCUCUGUUCUC [Elimod 33 - Jieux - Sensor, turn-off variant 1] (Eterna round: R97, puzzle: Sensor, turn-off variant 1)",–,–,–,657,–,847
GGAAAGUGAGGAUAUGGUAAAGUAAGUAUGUAGUAAGUAAUCCAGAAGGCACAUGAGGAUCACCCAUGUAAAGG [Mat - Exclusion 4 - D101] (puzzle: Exclusion 4),24.8,25.4,26.8,–,–,–
"GAUUAUGCGAGCUUUAGGGACAUGAGGAUCACCCAUGUUCGUCUUAUUGGUCUGAAUGCACUGACAUACCUAAAUCU [JMF 76] (puzzle: Sensor v3, turn-off variant 1)",18.7,24.2,17.5,–,–,–
ACUAUUAGAGGAUAUACAGUUUAUUACAUGAGGAUCACCCAUGUUCUUCAAUGUAUAUAAGUAGAAGGCUAAGGAA [EX-5 Malc#3] (puzzle: Exclusion 5),114,45.9,38.2,–,–,–
"GCUGGACAAGGAUAUAUAUGACGUGCUUCGGCACGAAGGUCACAUGAGGAUCACCCAUGUAGAAGGUGUCCAGC [E2/9-C2] (Eterna round: R97, puzzle: Exclusion 2)",–,–,–,342,–,49.7
GAGUGACAUGAGGAUCACCCAUGUGAGGAUAUCGGACGGACCAAAUUAACAACACCCGCGAGAAGGCACAUCGG [Exclusion 1 V21] (puzzle: Exclusion 1),–,110,–,–,–,–
CUAGUCCGAGGAUAUAUUAAGUGAAACAUGAGGAUCACCCAUGUUAUUUAAUGGAAAUAAAUAGAAGGCGGACUAG [Mat - Exclusion 5 - JL mod - D56] (puzzle: Exclusion 5),27.2,34.6,51.6,–,–,–

Sequence,apparent KD of MS2 coat protein [1] [nM],apparent KD of MS2 coat protein [2] [nM],apparent KD of MS2 coat protein [3] [nM],apparent KD of MS2 coat protein (input ligand: FMN 200 uM) [nM],apparent KD of MS2 coat protein [4] [nM],apparent KD of MS2 coat protein (input ligand: none) [nM]
"GGAUAUAACGUAGGAUAUGAGCGCAACUGACGAUCAGAAGGACGACAUGAGGAUCACCCAUGUGAUCUAUCAAUAUUAUACAUG [Prohibition 95 - Jieux - Exclusion NG 1] (Eterna round: R96, puzzle: Exclusion NG 1)",–,–,–,590,495,977
"AGUAGUAGUAUCCGAUCUUACAUGAGGAUCACCCAUGUAGCUAGACGUGCACGCGAUGCUCGUCAGACUACCAGAUG [salish99_TOv1_r3_051] (puzzle: Sensor v3, turn-off variant 1)",148,230,277,–,–,–
"GAUUACCUAACAAGUAAGCACAUGAGGAUCACCCAUGUGGAGGGUCAUGUCAUGCUCAAGAUGCUCGUCAUUUCUAG [Eternabot (L2) Solution 38] (Eterna round: R97, puzzle: Sensor, turn-off variant 1)",–,–,–,180,–,193
"GUCAGCUCGUGAGGAUAUAUAUUAACAUGAGGAUCACCCAUGUAAGAUCAGCUUCGGCAGUUAAUAUAGAAGGCACGAGCUGAC [ENG2/14-A1] (Eterna round: R96, puzzle: Exclusion NG 2)",–,–,–,–,137,–
"GAACCAAAAGGAUAUGGCGUAACAAACAUGAGGAUCACCCAUGUCCUCGAUGAAUAUCCGCCAGAAGGUUUGUCUC [Eternabot (L2) Solution 10] (Eterna round: R97, puzzle: Exclusion 5)",–,–,–,1000,–,1760
"UUGUUAUAUGUAGGAUAUGCGUAUUAUUAUUAUGCAGAAGGACAUGAGGAUCACCCAUGUAUGUUGUUGUUAUAUAUUAUAUAU [Title] (Eterna round: R96, puzzle: Exclusion NG 1)",–,–,–,–,18.1,–
"UUCGUGCAGCUUUGCUGUACGCGUACAUGAGGAUCACCCAUGUAGGAUAUGGUACGCUUUGCGUGCUAGAAGGAUAUGUGGAGG [JL EXNG3 1.35] (Eterna round: R96, puzzle: Exclusion NG 3)",–,–,–,59.1,33.6,45.2
"GACCGUGCUUAGGAUAUACGUUAGGAGUUGACCGUAGAAGGGAGUACAUGAGGAUCACCCAUGUCACCUACAGC [Eternabot (L2) Solution 75] (Eterna round: R97, puzzle: Exclusion 6)",–,–,–,15.9,–,16.5
"UAUAUAUAGUAAGGAUAUGUAUAAAUUUUAUAAACAGAAGGUACUGACAUGAGGAUCACCCAUGUUUUAGUGUGGGCAUGUAGA [JMF's solution 52] (Eterna round: R96, puzzle: Exclusion NG 1)",–,–,–,–,74.6,–
"UAAUACAAGCAAAGAUCCUACAUGAGGAUCACCCAUGUGUUCGUCUUAUAAAGUACUAUCACGAAAGUGAUAGUACA [Mat - Sensor v3 - turn-off var 1 - Eli Mod - D79] (puzzle: Sensor v3, turn-off variant 1)",81.6,12.3,110,–,–,–
"CUAAUACAUCAGGAUAUGUGUCAUUAUAGCGACACAGAAGGGAUGACAUGAGGAUCACCCAUGUCAAAGGGUGA [eternacac ex6r4 sub22] (Eterna round: R97, puzzle: Exclusion 6)",–,–,–,85.4,–,639
GGAAAGCAAGGAUAUACAAGUAAACGAUGGAAAGUAGAGAGACAUGAGGAUCACCCAUGUAGAAGGUGCGAGAG [JR_Exclu2_Sub036] (puzzle: Exclusion 2),24.1,30.1,22.2,–,–,–
GUACGCUCAGGAUAUCAAGGGCUGUACAUGAGGAUCACCCAUGUUAUCUUGGUGUCAGCGUGAGAAGGGAGGGAAA [Xesoonesa] (puzzle: Exclusion 5),–,20.6,–,–,–,–
UAUUAGCUAGGAUAUACAUGAGGAUCACCCAUGUCACGGGUCCACUUGUCCUAUGCGUGUAGAAGGAGCGACCC [JL Ceriza mod 3] (puzzle: Exclusion 3),–,20.7,–,–,–,–
"CUGAGCAGACGGAGAUCCAACAUGAGGAUCACCCAUGUCUCAAAAGCUUUUUGCUUGUCUUAUCCUCCUCUGUUCAC [Esqutian] (Eterna round: R96, puzzle: Sensor v3, turn-off variant 1)",–,–,–,13.6,222,16.1
